{"source": "patent CN116710484A", "about": "(MYLINGENE INC, dated 2023)", "key": {"[1]": {"molecular_target": "T1, mouse recombinant WARS1 protein (mouse, UniProt P32921 1-481, limits assumed)", "T1 construct": "Recombinant protein; also called 小鼠WARS1; 小鼠重组蛋白", "T1 sequence (looked up)": "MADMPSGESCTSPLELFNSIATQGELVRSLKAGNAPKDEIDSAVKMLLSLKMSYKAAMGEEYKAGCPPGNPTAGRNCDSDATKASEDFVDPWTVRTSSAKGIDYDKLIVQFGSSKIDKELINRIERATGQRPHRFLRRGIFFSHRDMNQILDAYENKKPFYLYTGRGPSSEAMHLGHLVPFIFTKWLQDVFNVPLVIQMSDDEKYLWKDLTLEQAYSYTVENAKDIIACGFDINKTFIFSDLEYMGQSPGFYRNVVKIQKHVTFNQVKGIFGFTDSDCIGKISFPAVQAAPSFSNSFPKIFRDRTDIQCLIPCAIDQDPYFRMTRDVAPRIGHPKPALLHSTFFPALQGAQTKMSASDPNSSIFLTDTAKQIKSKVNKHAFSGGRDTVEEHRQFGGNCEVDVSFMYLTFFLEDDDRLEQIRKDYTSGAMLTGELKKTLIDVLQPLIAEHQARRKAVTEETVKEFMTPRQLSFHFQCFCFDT", "assay": "SPR, Biacore T200, CM5 chip"}, "[2]": {"molecular_target": "T2, human recombinant WARS1 protein (tryptophanyl-tRNA synthetase 1) (human, UniProt P23381 1-471, limits assumed)", "T2 construct": "Recombinant protein; also called 人WARS1; 人重组蛋白", "T2 sequence (looked up)": "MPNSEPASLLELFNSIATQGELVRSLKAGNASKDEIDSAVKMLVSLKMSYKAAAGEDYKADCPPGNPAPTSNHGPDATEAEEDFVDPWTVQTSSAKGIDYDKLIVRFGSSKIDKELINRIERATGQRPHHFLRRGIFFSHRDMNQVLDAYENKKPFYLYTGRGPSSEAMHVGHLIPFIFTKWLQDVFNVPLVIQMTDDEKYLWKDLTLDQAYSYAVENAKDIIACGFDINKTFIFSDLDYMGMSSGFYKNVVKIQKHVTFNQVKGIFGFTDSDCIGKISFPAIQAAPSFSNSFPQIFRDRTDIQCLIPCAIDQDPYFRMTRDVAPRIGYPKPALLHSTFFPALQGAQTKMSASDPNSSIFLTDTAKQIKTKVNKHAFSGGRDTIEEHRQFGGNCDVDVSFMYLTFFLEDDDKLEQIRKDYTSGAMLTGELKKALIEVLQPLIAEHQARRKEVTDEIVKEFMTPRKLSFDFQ", "assay": "SPR, Biacore T200, CM5 chip"}}}
{"binder": "GKB101 (antibody, V domains shown, also called WARS1特异性抗体; 抗WARS1抗体) VH: EVQLLESGGGLVQPGGSLRLSCAASGFTFSSYDMSWVRQAPGKGLEWVSAISSGGSSIYYADSVKGRFTISRDNSKNTLYLQMNSLRAEDTAVYYCARDVAWDMLGDFDYWGQGTLVTVSS VL: QSVLTQPPSASGTPGQRVTISCTGSSSNIGSNYVYWYQQLPGTAPKLLIYANSHRPSGVPDRFSGSKSGTSASLAISGLRSEDEADYYCGAWDDSLSAYVFGGGTKLTV", "values": [{"measurement": "Kd", "setting": "[1]", "result": "~3.76", "unit": "nM"}, {"measurement": "Kd", "setting": "[2]", "result": "~0.2", "unit": "nM"}]}
